# Laboratory results taken from patent publication US20240092897A1 (SHANGHAI JMT BIO TECHNOLOGY, published 2024).
# T1: Human Siglec-15, His Tag (human Siglec-15 full-length extracellular domain linked with His tag) (human, UniProt Q6ZMC9 20-263)
# T1 construct: Bought from ACROBiosystems; also called Siglec-15 protein; SG5-H52H3
# T1 sequence: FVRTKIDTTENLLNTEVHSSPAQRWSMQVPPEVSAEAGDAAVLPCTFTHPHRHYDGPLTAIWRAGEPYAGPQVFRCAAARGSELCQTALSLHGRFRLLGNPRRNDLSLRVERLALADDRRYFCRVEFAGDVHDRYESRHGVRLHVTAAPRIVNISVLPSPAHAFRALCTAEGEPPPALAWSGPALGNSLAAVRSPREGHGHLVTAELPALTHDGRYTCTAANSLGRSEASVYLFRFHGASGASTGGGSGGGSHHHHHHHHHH
# T2: Cynomolgus Monkey Siglec-15 full-length extracellular domain linked with His tag (Cynomolgus Monkey)
# T2 construct: Bought from ACROBiosystems; also called SG5-052H6
# T2 chain: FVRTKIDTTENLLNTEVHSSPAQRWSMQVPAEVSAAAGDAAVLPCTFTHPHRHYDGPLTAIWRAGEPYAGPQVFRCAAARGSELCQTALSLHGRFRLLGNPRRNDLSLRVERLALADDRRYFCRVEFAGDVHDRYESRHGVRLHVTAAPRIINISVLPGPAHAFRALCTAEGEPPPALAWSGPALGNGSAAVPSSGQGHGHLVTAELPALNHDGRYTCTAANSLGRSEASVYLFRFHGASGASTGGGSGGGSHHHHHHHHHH
# T3: Human Siglec-15 overexpressed on HEK293T cells (HEK293T-hu-S15) (human, UniProt Q6ZMC9 20-328)
# T3 construct: whole, on cells; also called HEK293T-hu-S15 cell line
# T3 sequence (looked up): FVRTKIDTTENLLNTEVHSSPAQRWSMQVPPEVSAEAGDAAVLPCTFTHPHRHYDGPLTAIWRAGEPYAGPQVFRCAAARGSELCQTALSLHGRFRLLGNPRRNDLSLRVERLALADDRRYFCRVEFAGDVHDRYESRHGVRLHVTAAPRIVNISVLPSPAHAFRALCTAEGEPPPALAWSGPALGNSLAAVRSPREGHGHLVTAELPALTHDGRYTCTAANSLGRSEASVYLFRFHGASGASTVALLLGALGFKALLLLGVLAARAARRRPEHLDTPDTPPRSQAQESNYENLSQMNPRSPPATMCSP
# What was measured:
# [1] = molecular target: T1, Human Siglec-15, His Tag (human …); assay: SPR Biacore, antibody captured by anti-human Fc on CM5, Siglec-15 protein as analyte
# [2] = molecular target: T1, Human Siglec-15, His Tag (human …); assay: Octet BLI epitope binning, Siglec-15 His on HIS1K sensor; competitor 75E1F2
# Description: (§1) Epitope binning assays were performed using the Octet RED96e (ForteBio) System for the antibodies tested. Human Siglec-15, His Tag (Cat. No. SG5-H52H3) (5 μg/mL) was captured by the HIS1K biosensor and bound to primary antibody (100 nM) for 180 s. Then, the Human Siglec-15, His Tag (antigen)-primary antibody was bound to secondary antibody (100 nM) on the biosensors for 90 s. Data analysis was performed using Octet RED96e (ForteBio) analysis software.
# [3] = molecular target: T1, Human Siglec-15, His Tag (human …); assay: ELISA, coated antigen
# Description: (§2) The variable regions from the antibodies produced by the hybridomas were combined with human IgG1 (N297A) constant regions to generate chimeric antibodies, named as 21F6C6, 75E1F2, 124B11F6, 174C11C9, and 255C12B10, respectively. Binding activity assays were performed on the chimeric antibodies using Siglec-15 proteins from different species, in which human, mouse and Cynomolgus Monkey Siglec-15 proteins were purchased from ACROBiosystems (Beijing, China). Antigen was coated at 0.5 μg/ml, and antibodies were diluted starting from 1 μg/ml and incubated with antigen. Horseradish peroxidase-labeled Anti-Human IgG antibody was used as the secondary antibody and OD₄₅₀ values were read after adding the substrate.
# [4] = molecular target: T2, Cynomolgus Monkey Siglec-15 full-length …; assay: ELISA, coated antigen
# Description: as §2
# [5] = molecular target: T3, Human Siglec-15 overexpressed on …; assay: flow cytometry on HEK293T-hu-S15 cells, detection with anti-human IgG (Fc specific)-FITC, average fluorescence intensity
# Description: HEK293T cell line overexpressing Siglec-15 (HEK293T-hu-S15) was purchased from KYinno Biotechnology Co., Ltd (Beijing, China) under Catalog #KC-1314. Purified anti-Siglec-15 chimeric antibodies were diluted at a gradient of 100 nM and incubated with HEK293T-hu-S15 cells at 4° C. for 30 min. Flow cytometry was performed after addition of anti-human IgG (Fc specific)-FITC (cat. #F9512) and incubation for 30 min.
# [6] = molecular target: T1, Human Siglec-15, His Tag (human …); assay: Octet BLI epitope binning, Siglec-15 His on HIS1K sensor; competitor 124B11F6
# Description: as §1
# [7] = molecular target: T1, Human Siglec-15, His Tag (human …); assay: Octet BLI epitope binning, Siglec-15 His on HIS1K sensor; competitor 255C12B10
# Description: as §1
# [8] = molecular target: T1, Human Siglec-15, His Tag (human …); assay: Octet BLI epitope binning, Siglec-15 His on HIS1K sensor; competitor 174C11C9
# Description: as §1
# [9] = molecular target: T1, Human Siglec-15, His Tag (human …); assay: SPR Biacore 8K, antibody captured by anti-human Fc, Siglec-15 His as analyte
# Description: Affinity analysis was performed using Biacore8K, and a CM5 chip immobilized with anti-human Fc antibody was used to capture the antibodies tested. The stock solutions of the antibodies to be tested were diluted to 5 μg/mL, and injected sequentially into the experimental channels at a flow rate of 10 μL/min at about 500 RU. The analyte was Human Siglec-15, His Tag (Cat. #SG5-H52H3), the diluted human Siglec-15 protein was injected sequentially into the experimental channels and the control channel at a flow rate of 30 μL/min and allowing for a binding time of 150 s and a dissociation time of 700 s. The KD value of each antibody was calculated using Biacore 8K analysis software.
Binder,Kd [1] [pM],koff [1] [s⁻¹],kon [1] [M⁻¹ s⁻¹],also measured
"21F6C6-hH2L3 (antibody, IgG1, V domains shown, Humanized; hIgG1, Kappa) VH: EVQLVESGGGLVKPGGSLRLSCAASGFTFSSYAMSWVRQAPGKGLEWVATISSGGSLIYYADSVTGRFTISRDNAKNTLYLQMNSLRAEDTAVYYCVRHGYYYGDSTLYYAMDYWGQGTTVTVSS VL: DIQLTQSPSSLSASVGDRVTITCRASQSVDYDGDSYMNWYQQKPGKAPKLLIYAASNLESGVPSRFSGSGSGTDFTLTISSLQPEDFATYYCQQSNEAPLTFGQGTKLEIK",72.4,0.000353,4.87e+06,–
"124B11F6-hH1L1 (antibody, IgG1, V domains shown, Humanized; hIgG1 heavy chain constant region, Lambda-C2 light chain constant region) VH: QVQLVQSGAEVKKPGASVKVSCKASVFNIKDYYMHWVRQAPGQGLEWIGRIDPEDDKTKYAPKFQGRATITADTSTNTAYLELSSLRSEDTAVYYCVRGWLGYIMDFWGQGTTVTVSS VL: QLVLTQSPSASFSLGASAKLTCTLSSQHSTYTIDWYQQQPEKGPRYVMELKEDGSHSTGDGIPDRFSGSSSGAERYLTISSIQSEDEADYICGVGATIKEQFVYVFGGGTKVTVL",109,0.000127,1.17e+06,–
"124B11F6-hH2L2 (antibody, IgG1, V domains shown, Humanized; hIgG1, Lambda) VH: QVQLVQSGAEVKKPGASVKVSCKASVFNIKDYYMHWVRQAPGQGLEWIGRIDPEDDKTKYAPKFQGRVTITADTSTSTAYLELSSLRSEDTAVYYCVRGWLGYIMDFWGQGTTVTVSS VL: QLVLTQSPSASASLGASVKLTCTLSSQHSTYTIDWYQQQPEKGPRYVMELKEDGSHSTGDGIPDRFSGSSSGAERYLTISSLQSEDEADYICGVGATIKEQFVYVFGGGTKVTVL",202,0.000224,1.11e+06,–
"174C11C9-hH2L2 (antibody, IgG1, V domains shown, Humanized; hIgG1, Kappa) VH: QVQLVQSGAEVKKPGASVKVSCKASGYIFTDYYMNWVRQAPGQGLEWIGVFNPYSGGISYNQKFKGRVTLTVDTSTSTAYMELSSLRSEDTAVYYCARDYYYLSSHGFYALDYWGQGTTVTVSS VL: DIQLTQSPSSLSASVGDRVTITCRASESVDSYGNSFIHWYQQKPGKAPKLLMYRASNLESGIPSRFSGSGSGTDFTLTISSLQPEDFATYYCQQSNEDPLTFGQGTKLEIK",325,0.000447,1.37e+06,–
"174C11C9-hH3L3 (antibody, IgG1, V domains shown, Humanized; hIgG1, Kappa) VH: QVQLVQSGAEVKKPGASVKVSCKASGYIFTDYYMNWVRQAPGQGLEWIGVFNPYSGGISYAQKFKGRVTLTVDTSTSTAYMELSSLRSEDTAVYYCARDYYYLSSHGFYALDYWGQGTTVTVSS VL: DIQLTQSPSSLSASVGDRVTITCRASESVDSYGNSFIHWYQQKPGKAPKLLMYRASNLESGVPSRFSGSGSGTDFTLTISSLQPEDFATYYCQQSNEDPLTFGQGTKLEIK",614,0.000482,785000,–

# Second part, led by results:
Kd [1] [pM],koff [1] [s⁻¹],kon [1] [M⁻¹ s⁻¹],Binder,also measured
68.4,0.000375,5.49e+06,"21F6C6 chimeric antibody (antibody, human IgG1, V domains shown, also called 21F6C6-mHL) VH: EVMLVESGGGLVKPGGSLKLSCAASGFTFSSYAMSWVRQSPEKRLEWVATISSGGSLIYYPDSVTGRFTISRDNAKSTLYLQMSSLRSEDTAMYYCVRHGYYYGDSTLYYAMDYWGPGTSVTVSS VL: DIVLTQSPASLAVSLGQRATISCKASQSVDYDGDSYMNWYQQKPGQPPKLLIYAASNLESGIPARFSGSGSGTDFTLNIHPVEEEDAATYYCQQSNEAPLTFGAGTKLELK",cross-competition score [2]: 4.92%; EC50 [3]: 4.81 ng/mL; EC50 [4]: 6.61 ng/mL; EC50 [5]: 1180 pM; cross-competition score [6]: 101%; cross-competition score [7]: 56.8%; cross-competition score [8]: 4.98%; Kd [9]: 47.3 pM; koff [9]: 0.000187 s⁻¹; kon [9]: 3.95e+06 M⁻¹ s⁻¹
80.6,0.000341,4.23e+06,"21F6C6-hH1L1 (antibody, IgG1, V domains shown, Humanized; hIgG1 heavy chain constant region, Kappa light chain constant region) VH: EVQLVESGGGLVKPGGSLRLSCAASGFTFSSYAMSWVRQAPGKGLEWVATISSGGSLIYYPDSVTGRFTISRDNAKSTLYLQMNSLRAEDTAVYYCVRHGYYYGDSTLYYAMDYWGQGTTVTVSS VL: DIQLTQSPSSLSASVGDRATITCRASQSVDYDGDSYMNWYQQKPGKAPKLLIYAASNLESGIPARFSGSGSGTDFTLTISSVQPEDFATYYCQQSNEAPLTFGQGTKLEIK",–
114,0.000184,1.61e+06,"21F6C6-hH2L4V (antibody, IgG1, V domains shown, Humanized; hIgG1, Kappa) VH: EVQLVESGGGLVKPGGSLRLSCAASGFTFSSYAMSWVRQAPGKGLEWVATISSGGSLIYYADSVTGRFTISRDNAKNTLYLQMNSLRAEDTAVYYCVRHGYYYGDSTLYYAMDYWGQGTTVTVSS VL: DIQMTQSPSSLSASVGDRVTITCRASQSVDYEGDSYMNWYQQKPGKAPKLLIYAASNLQSGVPSRFSGSGSGTDFTLTISSLQPEDFATYYCQQSNEAPLTFGQGTKLEIK",–
85.6,0.000414,4.84e+06,"21F6C6-hH2L4 (antibody, IgG1, V domains shown, Humanized; hIgG1, Kappa) VH: EVQLVESGGGLVKPGGSLRLSCAASGFTFSSYAMSWVRQAPGKGLEWVATISSGGSLIYYADSVTGRFTISRDNAKNTLYLQMNSLRAEDTAVYYCVRHGYYYGDSTLYYAMDYWGQGTTVTVSS VL: DIQMTQSPSSLSASVGDRVTITCRASQSVDYDGDSYMNWYQQKPGKAPKLLIYAASNLQSGVPSRFSGSGSGTDFTLTISSLQPEDFATYYCQQSNEAPLTFGQGTKLEIK",–
68.3,0.000314,4.59e+06,"21F6C6-hH2L2 (antibody, IgG1, V domains shown, Humanized; hIgG1, Kappa) VH: EVQLVESGGGLVKPGGSLRLSCAASGFTFSSYAMSWVRQAPGKGLEWVATISSGGSLIYYADSVTGRFTISRDNAKNTLYLQMNSLRAEDTAVYYCVRHGYYYGDSTLYYAMDYWGQGTTVTVSS VL: DIQLTQSPSSLSASVGDRATITCRASQSVDYDGDSYMNWYQQKPGKAPKLLIYAASNLESGVPSRFSGSGSGTDFTLTISSVQPEDFATYYCQQSNEAPLTFGQGTKLEIK",–
